# B1: 10D6: mouse anti-Ang2 monoclonal antibody from hybridoma KCLRF-BP-00295; heavy chain variable region SEQ ID NO: 7, light chain variable region SEQ ID NO: 9 (antibody, V domains shown)
# VH: DVQLQESGPGLVKPSQSLSLTCTVTGYSITSDYAWNWIRQFPGNKLEWMGYINYSGNTDYNPSLKSRSSITRDTSKNQFFLQLNSVTTGDTATYYCARGNFEGAMDYWGQGTSVTVSS
# VL: SIVMTQTPKFLLVSAGDRVTITCKASQSVSNDVAWYQQKPGQSPKLLIYYASNRYPGVPDRFTGSGYGTDFTFTISTVQAEDLAVYFCQQDYSSPWTFGGGTKLEIK
# modifications: Synthetic (Heavy chain variable region of an anti-Ang2 antibody); Synthetic (Light chain variable region of anti-Ang2 antibody)
# Legend:
# Tie2 receptor = test: Tie2, Akt and 42/44 phosphorylation in HUVEC: antibody 10D6 versus 10D6 Fab; assay type: cell-based, human; details: 60 nM 10D6 antibody or 10D6 Fab with 40 nM Ang2
# Method: To see whether the activation of a Tie2 receptor is resulted from the dimerization of antibody 10D6, Fab fragments of antibody 10D6 were purified and then used for this experiment. The Fab fragments were obtained from antibody 10D6 using an Fab Preparation Kit (Pierce). As a digestion buffer, PBS containing 20 mM EDTA and 20 mM L-Cysteine was used, and the antibody was separated into Fab and Fc by the treatment with an immobilized papain at a room temperature for 2 hours. The Fc fragments were removed from the reaction solution using MabSelectSuRe column (GE Healthcare) to isolate and purify pure Fab fragments only.
# HUVEC (ATCC) cells (1×10^6) were cultured in a 100 mm culture dish using EGM-2 (Lonza) media at 37° C. and when they reached 80˜90% confluency, the media were replaced with serum-free media (Lonza) and cultured at 37° C. for 6 to 16 hours. The dish was washed once with PBS and after the replacement with […] sodium orthovanadate (Sigma)-mixed serum free media (Lonza), they were further cultured for 10 min. After washed once with PBS, the cultured cells were treated with a mixture prepared by mixing 60 nM of 10D6 Ang2 antibody or 10D6 Fab with 40 nM of Ang2 protein (R&D systems) and letting them stand for 20 min. and further cultured for 10 min. […]
# [1] = test system: lymphatic endothelial cells; test: Cell migration assay (xCelligence RTCA); assay type: cell-based; details: 2 ug/ml Ang2 with antibody; slope (1/hr)
# Method: Also, the measurement of the mobility of lymphatic endothelial cells was conducted using xCelligence RTCA (Realtime cell analyzer; GE Healthcare). The RTCA is a non-invasive cell monitoring system by measuring impedance in real time to identify the change of a cell. To perform a cell migration assay, a CIM-plate16 (GE Healthcare) with a lower chamber and an upper chamber was used wherein microelectrodes for measuring impedance are arranged in the upper chamber and if the cells seeded into the chamber migrate through fine holes, the migration degree of the cells can be identified through their adhesion to the microelectrodes, and it was referred to as migration index. The lymphatic endothelial cells (P5-7; Lonza) which grew up in EGM-2 media (Lonza) were cultured in 1% FBS-added EBM media for 6 hours. 2 ug/ml of Ang2 and antibody 10D6 in 2% FBS-added EBM media were added to each well of the lower chamber of the CIM-plate 16, which was assembled with the upper chamber coated with fibronectin (Sigma). For efficiency comparison, an anti-Ang2 antibody (MedImmune Co.) was used. 30 ul of serum-free EBM media was each added to the upper chamber and then, for equilibration between the plate and media, while being placed in an incubator for 1 hour, the CIM-plate was installed on a device station in the incubator and then, background values were measured. […]
# tumor blood vessels = test: Lectin perfusion assay in LLC tumors; assay type: in vivo, mouse; details: 10 mg/kg i.p., five administrations, compared to Fc- or 4H10-treated group
# Method: To see the functions of tumor blood vessels treated with antibody 10D6, perfusion level of the blood vessel was examined by Lectin perfusion assay. Referring to the method described in Example 14, LLC tumor cells were subcutaneously injected into mice. When the size of tumors reached 50˜100 mm^3, anti-Ang2 antibody 10D6 was injected at the concentration of 10 mg/kg via an intraperitoneal injection three times a week and the size of the tumors was measured. For comparison, the same experiment was performed to a control group treated with Fc of IgG1 and a comparative group treated with antibody 4H10 (refer to Example 3).
# After administering the antibody five-times, the mice were injected with FITC-Lectin (Vector laboratory) via tail vein, and after 20 minutes, subjected to perfusion fixation. Tumor frozen sections were obtained and immunostained using hamster anti-CD31 antibody (1:200, Millipore). Images were obtained using LSM5 confocal microscope (Zeiss), and Lectin+ area/CD31+ area was quantified using ImageJ software (http://rsb.info.nih.gov/ij).
# LLC tumor tissues = test: H&E staining of necrotic region in LLC tumors; assay type: in vivo, mouse; details: 10 mg/kg i.p., five administrations, compared to Fc- or 4H10-treated group
# Method: To see the effects of the structurally and functionally normalized blood vessels in tumor by treatment of antibody 10D6 on the tumor tissues, referring to the method of Example 14, LLC tumor cells were subcutaneously injected into mice. When the size of tumors reached 50˜100 mm^3, anti-Ang2 antibody 10D6 was injected at the concentration of 10 mg/kg via an intraperitoneal injection three times a week and the size of the tumors was measured. After administering the antibody five-times, the tumor sections were stained with H&E according to standard protocol, and then, the Eosin+ cell necrotic region in tumor tissues was confirmed. For comparison, the same experiment was performed to a control group treated with Fc of IgG1 and a comparative group treated with antibody 4H10 (refer to Example 3).
molecule,measurement,setting,value
B1,"phosphorylation of Tie2, Akt and 42/44",Tie2 receptor,occurred
same,migration of lymphatic endothelial cells,[1],increased
same,percentage of Lectin+ area in CD31+ area,tumor blood vessels,increased
same,perfusion function of tumor blood vessels,tumor blood vessels,enhanced
same,cell necrotic region in tumor tissues,LLC tumor tissues,smaller
